Measured values taken from patent US20160264649A1 (published 2016).

B1: 1443_C16 (PG16) (TCN-116) (antibody, V domains shown)
VH: QEQLVESGGGVVQPGGSLRLSCLASGFTFHKYGMHWVRQAPGKGLEWVALISDDGMRKYHSDSMWGRVTISRDNSKNTLYLQFSSLKVEDTAMFFCAREAGGPIWHDDVKYYDFNDGYYNYHYMDVWGKGTTVTVSS
VL: QSALTQPASVSGSPGQTITISCNGTSSDVGGFDSVSWYQQSPGKAPKVMVFDVSHRPSGISNRFSGSKSGNTASLTISGLHIEDEGDYFCSSLTDRSHRIFGGGTKVTVLG
B2: 1456_P20 (PG20) (antibody, human IgG1, kappa, V domains shown)
VH: QVRLVQSGPEVKKPGSSVTVSCQASGGTFSSYAFTWVRQAPGQGLEWLGMVTPIFGEAKYSQRFEGRVTITADESTSTTSIELRGLTSEDTAIYYCARDRRAVPIATDNWLDPWGQGTLVTVSS
VL: DIQLTQSPSSLSASVGDRVSITCRASQTINNYLNWYQQTPGKAPKLLIYGASNLQNGVPSRFSGSGSGTDFTLTISSLQPEDFATYYCQQSFSTPRTFGQGTRLDIKR
B3: 1460_G14 (PGG14) (antibody, human IgG1, kappa, V domains shown)
VH: QVLLVQSGTEVKKPGSSVKVSCQASGGAFSSYAFSWVRQAPGQGLEWMGMITPVFGETKYAPRFQGRLTLTAEESLSTTYMELRSLTSDDTAFYYCTRDRRVVPMATDNWLDPWGQGTLVTVSS
VL: DIQLTQSPSSLSASVGDRVTVTCRASQTIHTYLNWYQQIPGKAPKLLIYGASTLQSGVPSRFSGSGSGTDFTLTINSLQPEDFATYYCQQSYSTPRTFGQGTRLDIKR
B4: 1496_C09 (PG9) (TCN-109) (antibody, V domains shown)
VH: QRLVESGGGVVQPGSSLRLSCAASGFDFSRQGMHWVRQAPGQGLEWVAFIKYDGSEKYHADSVWGRLSISRDNSKDTLYLQMNSLRVEDTATYFCVREAGGPDYRNGYNYYDFYDGYYNYHYMDVWGKGTTVTVSS
VL: QSALTQPASVSGSPGQSITISCNGTSNDVGGYESVSWYQQHPGKAPKVVIYDVSKRPSGVSNRFSGSKSGNTASLTISGLQAEDEGDYYCKSLTSTRRRVFGTGTKLTVLG
B5: 1496 C09 γ3 017 + 1496 C09 λ3 024 (antibody, V domains shown)
VH: QRLVESGGGVVQPGSSLRLSCAASGFDFSRQGMHWVRQAPGQGLEWVAFIKYDGSEKYHADSVWGRLSISRDNSKDTLYLQMNSLRVEDTATYFCVREAGGPDYRNGYNYYDFYDGYYNYHYMDVWGKGTTVTVSS
VL: QSALTQPASVSGSPGQTITISCNGTSSDVGGFDSVSWYQQSPGKAPKVMVFDVSHRPSGISNRFSGSKSGNTASLTISGLHIEDEGDYFCSSLTDRSHRIFGGGTKVTVLG
B6: 1495_C14 (PGC14) (antibody, human IgG1, lambda, V domains shown)
VH: DGHLVQSGVEVKKTGATVKISCKVSGYSFIDYYLHWVQRAPGKGLEWVGLIDPENGEARYAEKFQGRVTIIADTSIDTGYMEMRSLKSEDTAVYFCAAGAVGADSGSWFDPWGQGTLVTVSS
VL: SYELTQPPSVSVSPGQTASITCSGSKLGDKYVSWYQLRPGQSPILVMYENDRRPSGIPERFSGSNSGDTATLTISGTQALDEADFYCQAWETTTTTFVFFGGGTQLTVLG

Assays:
Test in all cases: cell-based or functional assay
HIV-1 IAVI_C22 Env = HIV-1 IAVI_C22 Env (HIV-1 strain IAVI C22)
HIV-1 NL43 Env = HIV-1 NL43 Env (HIV-1 strain NL43)
HIV-1 93IN905 Env = HIV-1 93IN905 Env (HIV-1 strain 93IN905)
HIV-1 92TH021 Env = HIV-1 92TH021 Env (HIV-1 strain 92TH021)
HIV-1 94UG103 Env = HIV-1 94UG103 Env (HIV-1 strain 94UG103)
HIV-1 SF162 Env [1] = biological target: T1, HIV-1 SF162 Env (HIV-1 strain SF162, UniProt P19550 32-847)
HIV-1 92BR020 Env = HIV-1 92BR020 Env (HIV-1 strain 92BR020)
aMLV Env = aMLV Env (aMLV)
HIV-1 JR-CSF Env (gp160) = HIV-1 JR-CSF Env (gp160) (HIV-1 isolate JR-CSF, UniProt P20871 32-848)
Sequence of HIV-1 JR-CSF Env (gp160) (P20871 32-848): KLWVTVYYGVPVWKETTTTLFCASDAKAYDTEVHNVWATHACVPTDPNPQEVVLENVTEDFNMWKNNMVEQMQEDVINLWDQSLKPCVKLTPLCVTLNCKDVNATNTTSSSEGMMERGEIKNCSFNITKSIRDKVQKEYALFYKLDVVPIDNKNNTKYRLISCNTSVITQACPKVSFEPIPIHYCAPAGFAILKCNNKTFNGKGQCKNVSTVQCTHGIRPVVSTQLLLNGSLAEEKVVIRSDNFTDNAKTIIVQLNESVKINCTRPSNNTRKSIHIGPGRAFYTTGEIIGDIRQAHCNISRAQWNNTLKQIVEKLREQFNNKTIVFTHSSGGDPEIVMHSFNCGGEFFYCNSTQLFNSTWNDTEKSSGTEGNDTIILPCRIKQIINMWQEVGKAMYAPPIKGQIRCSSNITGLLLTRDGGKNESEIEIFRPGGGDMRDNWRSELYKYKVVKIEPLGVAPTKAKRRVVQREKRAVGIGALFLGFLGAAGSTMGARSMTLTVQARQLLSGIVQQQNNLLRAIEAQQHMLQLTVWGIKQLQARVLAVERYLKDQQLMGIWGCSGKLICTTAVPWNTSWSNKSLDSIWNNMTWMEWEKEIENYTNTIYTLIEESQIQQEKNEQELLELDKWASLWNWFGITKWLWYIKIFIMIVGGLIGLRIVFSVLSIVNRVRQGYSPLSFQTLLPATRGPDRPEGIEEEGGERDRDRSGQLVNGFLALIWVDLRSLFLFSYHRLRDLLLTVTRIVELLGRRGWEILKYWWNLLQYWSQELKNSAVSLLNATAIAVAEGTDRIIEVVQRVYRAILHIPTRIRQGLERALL

HIV-1 SF162 Env [2] = biological target: T1, HIV-1 SF162 Env; remark: listed apart in the source

| Binder | IC50 neutralization, 1 hour virus/Ab incubation (HIV-1 IAVI_C22 Env) [µg/mL] | IC50 neutralization, 18 hour virus/Ab incubation (HIV-1 IAVI_C22 Env) [µg/mL] | IC50 neutralization, 1 hour virus/Ab incubation (HIV-1 NL43 Env) [µg/mL] | IC50 neutralization, 18 hour virus/Ab incubation (HIV-1 NL43 Env) [µg/mL] | IC50 neutralization, 1 hour virus/Ab incubation (HIV-1 93IN905 Env) [µg/mL] | IC50 neutralization, 18 hour virus/Ab incubation (HIV-1 93IN905 Env) [µg/mL] | IC50 neutralization, 1 hour virus/Ab incubation (HIV-1 92TH021 Env) [µg/mL] | IC50 neutralization, 18 hour virus/Ab incubation (HIV-1 92TH021 Env) [µg/mL] | IC50 neutralization, 1 hour virus/Ab incubation (HIV-1 94UG103 Env) [µg/mL] | IC50 neutralization, 18 hour virus/Ab incubation (HIV-1 94UG103 Env) [µg/mL] | IC50 neutralization, 1 hour virus/Ab incubation (HIV-1 SF162 Env [1]) [µg/mL] | IC50 neutralization, 18 hour virus/Ab incubation (HIV-1 SF162 Env [1]) [µg/mL] | IC50 neutralization, 1 hour virus/Ab incubation (HIV-1 92BR020 Env) [µg/mL] | IC50 neutralization, 18 hour virus/Ab incubation (HIV-1 92BR020 Env) [µg/mL] | IC50 neutralization, 1 hour virus/Ab incubation (aMLV Env) [µg/mL] | IC50 neutralization, 18 hour virus/Ab incubation (aMLV Env) [µg/mL] | IC50 neutralization, 1 hour virus/Ab incubation (HIV-1 JR-CSF Env (gp160)) [µg/mL] | IC50 neutralization, 18 hour virus/Ab incubation (HIV-1 JR-CSF Env (gp160)) [µg/mL] | Neutralization Index SF162 (clonal H and L transfectant) (HIV-1 SF162 Env [2]) |
| --- | --- | --- | --- | --- | --- | --- | --- | --- | --- | --- | --- | --- | --- | --- | --- | --- | --- | --- | --- |
| B1 | 0.114 | 0.106 | < 0.0025 | 4.99 | 0.33 | 0.255 | 0.136 | 0.0435 | 0.0211 | 0.0085 | > 50 | > 50 | > 50 | > 50 | > 50 | > 50 | < 0.0025 | < 0.0025 | 0.67 |
| B2 | > 50 | > 50 | 0.2 | 0.05 | > 50 | 3.84 | > 50 | > 50 | > 50 | > 50 | 0.195 | 0.0661 | > 50 | > 50 | > 50 | > 50 | > 50 | > 50 | – |
| B3 | > 50 | > 50 | 0.17 | 0.05 | > 50 | 3.17 | > 50 | > 50 | > 50 | > 50 | – | – | > 50 | > 50 | > 50 | > 50 | – | – | 39.4 |
| B4 | 24.9 | 2.11 | 0.294 | 38 | 0.144 | 0.0619 | 0.0612 | 0.0571 | 0.334 | 0.0942 | > 50 | > 50 | > 50 | > 50 | > 50 | > 50 | – | – | – |
| B5 | – | – | – | – | – | – | – | – | – | – | – | – | – | – | – | – | – | – | 0.94 |
| B6 | > 50 | 13.4 | 0.35 | 0.15 | > 50 | 0.146 | > 50 | > 50 | > 50 | > 50 | 0.0069 | < 0.0025 | 1.17 | 0.244 | > 50 | > 50 | > 50 | > 50 | – |
